Results as given in IntAct's records for PubMed 25752543.

B1: Neuropilin-2 (Homo sapiens), O60462 (parent)
chain: MDMFPLTWVFLALYFSRHQVRGQPDPPCGGRLNSKDAGYITSPGYPQDYPSHQNCEWIVYAPEPNQKIVLNFNPHFEIEKHDCKYDFIEIRDGDSESADLLGKHCGNIAPPTIISSGSMLYIKFTSDYARQGAGFSLRYEIFKTGSEDCSKNFTSPNGTIESPGFPEKYPHNLDCTFTILAKPKMEIILQFLIFDLEHDPLQVGEGDCKYDWLDIWDGIPHVGPLIGKYCGTKTPSELRSSTGILSLTFHTDMAVAKDGFSARYYLVHQEPLENFQCNVPLGMESGRIANEQISASSTYSDGRWTPQQSRLHGDDNGWTPNLDSNKEYLQVDLRFLTMLTAIATQGAISRETQNGYYVKSYKLEVSTNGEDWMVYRHGKNHKVFQANNDATEVVLNKLHAPLLTRFVRIRPQTWHSGIALRLELFGCRVTDAPCSNMLGMLSGLIADSQISASSTQEYLWSPSAARLVSSRSGWFPRIPQAQPGEEWLQVDLGTPKTVKGVIIQGARGGDSITAVEARAFVRKFKVSYSLNGKDWEYIQDPRTQQPKLFEGNMHYDTPDIRRFDPIPAQYVRVYPERWSPAGIGMRLEVLGCDWTDSKPTVETLGPTVKSEETTTPYPTEEEATECGENCSFEDDKDLQLPSGFNCNFDFLEEPCGWMYDHAKWLRTTWASSSSPNDRTFPDDRNFLRLQSDSQREGQYARLISPPVHLPRSPVCMEFQYQATGGRGVALQVVREASQESKLLWVIREDQGGEWKHGRIILPSYDMEYQIVFEGVIGKGRSGEIAIDDIRISTDVPLENCMEPISAFAGENFKVDIPEIHEREGYEDEIDDEYEVDWSNSSSATSGSGAPSTDKEKSWLYTLDPILITIIAMSSLGVLLGATCAGLLLYCTCSYSGLSSRSCTTLENYNFELYDGLKHKVKMNHQKCCSEA
partner: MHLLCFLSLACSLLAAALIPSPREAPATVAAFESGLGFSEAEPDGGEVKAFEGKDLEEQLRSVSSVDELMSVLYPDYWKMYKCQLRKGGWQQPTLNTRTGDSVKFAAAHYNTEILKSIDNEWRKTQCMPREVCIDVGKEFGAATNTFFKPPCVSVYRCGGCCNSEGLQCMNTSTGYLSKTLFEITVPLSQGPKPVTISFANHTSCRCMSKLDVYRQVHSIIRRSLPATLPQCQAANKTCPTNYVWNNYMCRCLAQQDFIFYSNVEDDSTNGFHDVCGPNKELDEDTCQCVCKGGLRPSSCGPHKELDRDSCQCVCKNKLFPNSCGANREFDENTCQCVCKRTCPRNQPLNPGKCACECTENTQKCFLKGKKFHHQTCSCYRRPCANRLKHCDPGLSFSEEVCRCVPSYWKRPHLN
B2: Vascular endothelial growth factor C (Mus musculus), P97953-1 (parent)
chain: B1 partner
partner: B1 chain

Variants of: B1
Details: with Vegfc

effect of a mutation on the interaction	Variant
disrupting interaction strength	T319R

Variants of: B2
Details: with nrp2_human NRP2, O60462

effect of a mutation on the interaction	Variant
decreasing interaction strength	MHLLCFLSLACSLLAAALIPSPREAPATVAAFESGLGFSEAEPDGGEVKAFEGKDLEEQLRSVSSVDELMSVLYPDYWKMYKCQLRKGGWQQPTLNTRTGDSVKFAAAHYNTEILKSIDNEWRKTQCMPREVCIDVGKEFGAATNTFFKPPCVSVYRCGGCCNSEGLQCMNTSTGYLSKTLFEITVPLSQGPKPVTISFANHTSCRCMSKLDVYRQVHSIIRESLPATLPQCQAANKTCPTNYVWNNYMCRCLAQQDFIFYSNVEDDSTNGFHDVCGPNKELDEDTCQCVCKGGLRPSSCGPHKELDRDSCQCVCKNKLFPNSCGANREFDENTCQCVCKRTCPRNQPLNPGKCACECTENTQKCFLKGKKFHHQTCSCYRRPCANRLKHCDPGLSFSEEVCRCVPSYWKRPHLN [R223E]
